Reference: patent US20050064507

Legend:
[1] = tested on: T1, ADD2 peptide KKKFRTPSFLKKSKK (SEQ ID NO:95)
T1 sequence: KKKFRTPSFLKKSKK

[2] = tested on: T2, CREB1 peptide EILSRRPSYRKILND (SEQ ID NO:106)
T2 sequence: EILSRRPSYRKILND

[3] = tested on: T3, KCNH2 peptide RQRKRKLSFRRRTDKD (SEQ ID NO:86)
T3 sequence: RQRKRKLSFRRRTDKD

[4] = tested on: T4, MYBPC3 peptide LLKKRDSFRTPRDSKLE (SEQ ID NO:103)
T4 sequence: LLKKRDSFRTPRDSKLE

[5] = tested on: T5, EBNA1BP2 peptide KRPGKKGSNKRPGKR (SEQ ID NO:112)
T5 sequence: KRPGKKGSNKRPGKR

[6] = tested on: T6, MLK3 peptide HVRRRRGTFKRSKLRARD (SEQ ID NO:76)
T6 sequence: HVRRRRGTFKRSKLRARD

[7] = tested on: T7, CACNA1C peptide RGFLRSASLGRRASFHLE (SEQ ID NO:96)
T7 sequence: RGFLRSASLGRRASFHLE

[8] = tested on: T8, PLEC1 peptide KRERKTSSKSSVRKRR (SEQ ID NO:81)
T8 sequence: KRERKTSSKSSVRKRR

[9] = tested on: T9, PPP1R14A peptide QKRHARVTVKYDRRE (SEQ ID NO:107)
T9 sequence: QKRHARVTVKYDRRE

[10] = tested on: T10, AKAP12 peptide AGWRKKTSFRKPKED (SEQ ID NO:99)
T10 sequence: AGWRKKTSFRKPKED

[11] = tested on: T11, NEURL peptide ALRRPSLRREADD (SEQ ID NO:105)
T11 sequence: ALRRPSLRREADD

[12] = tested on: T12, NF1 peptide AGSFKRNSIKKIV (SEQ ID NO:102)
T12 sequence: AGSFKRNSIKKIV

[13] = tested on: T13, DGKI peptide NRKKKRTSFKRKA (SEQ ID NO:79)
T13 sequence: NRKKKRTSFKRKA

[14] = tested on: T14, CHRM1 peptide RKIPKRPGSVHRTPSRQ (SEQ ID NO:83)
T14 sequence: RKIPKRPGSVHRTPSRQ

[15] = tested on: T15, MAP3K14 peptide WKGKRRSKARKKRK (SEQ ID NO:100)
T15 sequence: WKGKRRSKARKKRK

[16] = tested on: T16, NCF1 peptide GAPPRRSSIRNAH (SEQ ID NO:101)
T16 sequence: GAPPRRSSIRNAH

[17] = tested on: T17, LIMK2 peptide KATTKKRTLRKNDRK (SEQ ID NO:108)
T17 sequence: KATTKKRTLRKNDRK

[18] = tested on: T18, PLEK peptide KFARKSTRRSIRLPE (SEQ ID NO:78)
T18 sequence: KFARKSTRRSIRLPE

[19] = tested on: T19, PRKCA peptide RFARKGSLRQKNV (SEQ ID NO:85)
T19 sequence: RFARKGSLRQKNV

[20] = tested on: T20, PRKCM peptide VHYTSKDTLRKRHYWR (SEQ ID NO:91)
T20 sequence: VHYTSKDTLRKRHYWR

[21] = tested on: T21, PSCD2 peptide AARKKRISVKKKQEQ (SEQ ID NO:93)
T21 sequence: AARKKRISVKKKQEQ

[22] = tested on: T22, SYTL4 peptide RQGKRKTSIKRDTVNPL (SEQ ID NO:87)
T22 sequence: RQGKRKTSIKRDTVNPL

[23] = tested on: T23, ARHGAP6 peptide DGQKRKKSLRKKLD (SEQ ID NO:92)
T23 sequence: DGQKRKKSLRKKLD

[24] = tested on: T24, p164-RhoGEF peptide PRLIRRGSKKRPAR (SEQ ID NO:82)
T24 sequence: PRLIRRGSKKRPAR

[25] = tested on: T25, NR4A3 peptide KEVVRTDSLKGRRGR (SEQ ID NO:109)
T25 sequence: KEVVRTDSLKGRRGR

[26] = tested on: T26, MARCKS peptide KKKRFSFKKSFKLSGFSFKK (SEQ ID NO:111)
T26 sequence: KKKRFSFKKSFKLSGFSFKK

[27] = tested on: T27, PARIS1 peptide EYLERRASRRRAV (SEQ ID NO:89)
T27 sequence: EYLERRASRRRAV

[28] = tested on: T28, SDPR peptide EKIKRSSLKKVDSLKK (SEQ ID NO:104)
T28 sequence: EKIKRSSLKKVDSLKK

[29] = tested on: T29, GABRB2 peptide QKKSRLRRRASQLKI (SEQ ID NO:84)
T29 sequence: QKKSRLRRRASQLKI

[30] = tested on: T30, MARCKS peptide KKKKKRFSFKKSFKL (SEQ ID NO:80)
T30 sequence: KKKKKRFSFKKSFKL

[31] = tested on: T31, MACMARCKS peptide KKPFKLSGLSFKRNRKE (SEQ ID NO:88)
T31 sequence: KKPFKLSGLSFKRNRKE

[32] = tested on: T32, DGKZ peptide KKKKRASFKRKSSKKG (SEQ ID NO:77)
T32 sequence: KKKKRASFKRKSSKKG

[33] = tested on: T33, SPTBN4 peptide EGGDRRASGRRK (SEQ ID NO:110)
T33 sequence: EGGDRRASGRRK

[34] = tested on: T34, ARHGAP4 peptide AGPLRKSSLKKGGRL (SEQ ID NO:98)
T34 sequence: AGPLRKSSLKKGGRL

[35] = tested on: T35, ERN1 peptide KLAVGRHSFSRRSGV (SEQ ID NO:94)
T35 sequence: KLAVGRHSFSRRSGV

[36] = tested on: T36, ASIP peptide KKRSSKKEASMKKVVRP (SEQ ID NO:97)
T36 sequence: KKRSSKKEASMKKVVRP

[37] = tested on: T37, ANK1 peptide AQIVKRASLKRGKQ (SEQ ID NO:90)
T37 sequence: AQIVKRASLKRGKQ

[38] = tested on: T38, FLJ20574 peptide GENVLKKSMKSRVKG (SEQ ID NO:113)
T38 sequence: GENVLKKSMKSRVKG

Substance | in vitro phosphorylation (% of best substrate) [1] | in vitro phosphorylation (% of best substrate) [2] | in vitro phosphorylation (% of best substrate) [3] | in vitro phosphorylation (% of best substrate) [4] | in vitro phosphorylation (% of best substrate) [5] | in vitro phosphorylation (% of best substrate) [6] | in vitro phosphorylation (% of best substrate) [7] | in vitro phosphorylation (% of best substrate) [8] | in vitro phosphorylation (% of best substrate) [9] | in vitro phosphorylation (% of best substrate) [10] | in vitro phosphorylation (% of best substrate) [11] | in vitro phosphorylation (% of best substrate) [12] | in vitro phosphorylation (% of best substrate) [13] | in vitro phosphorylation (% of best substrate) [14] | in vitro phosphorylation (% of best substrate) [15] | in vitro phosphorylation (% of best substrate) [16] | in vitro phosphorylation (% of best substrate) [17] | in vitro phosphorylation (% of best substrate) [18] | in vitro phosphorylation (% of best substrate) [19] | in vitro phosphorylation (% of best substrate) [20] | further results
AKT1 | 9 | 12 | 39 | 7 | 3 | 100 | 32 | 9 | 3 | 6 | 12 | 6 | 7 | 6 | 3 | 12 | 1 | 2 | 10 | 5 | in vitro phosphorylation (% of best substrate) [21]: 7; in vitro phosphorylation (% of best substrate) [22]: 7; in vitro phosphorylation (% of best substrate) [23]: 2; in vitro phosphorylation (% of best substrate) [24]: 9; in vitro phosphorylation (% of best substrate) [25]: 2; in vitro phosphorylation (% of best substrate) [26]: 3; in vitro phosphorylation (% of best substrate) [27]: 1; in vitro phosphorylation (% of best substrate) [28]: 2; in vitro phosphorylation (% of best substrate) [29]: 10; in vitro phosphorylation (% of best substrate) [30]: 6; in vitro phosphorylation (% of best substrate) [31]: 10; in vitro phosphorylation (% of best substrate) [32]: 8; in vitro phosphorylation (% of best substrate) [33]: 1; in vitro phosphorylation (% of best substrate) [34]: 7; in vitro phosphorylation (% of best substrate) [35]: 9; in vitro phosphorylation (% of best substrate) [36]: 10; in vitro phosphorylation (% of best substrate) [37]: 3; in vitro phosphorylation (% of best substrate) [38]: 9
PKA | 2 | 30 | 87 | 3 | 0 | 69 | 86 | 2 | 2 | 1 | 84 | 5 | 3 | 2 | 2 | 100 | 0 | 5 | 81 | 3 | in vitro phosphorylation (% of best substrate) [21]: 1; in vitro phosphorylation (% of best substrate) [22]: 64; in vitro phosphorylation (% of best substrate) [23]: 18; in vitro phosphorylation (% of best substrate) [24]: 10; in vitro phosphorylation (% of best substrate) [25]: 1; in vitro phosphorylation (% of best substrate) [26]: 3; in vitro phosphorylation (% of best substrate) [27]: 4; in vitro phosphorylation (% of best substrate) [28]: 1; in vitro phosphorylation (% of best substrate) [29]: 63; in vitro phosphorylation (% of best substrate) [30]: 3; in vitro phosphorylation (% of best substrate) [31]: 3; in vitro phosphorylation (% of best substrate) [32]: 4; in vitro phosphorylation (% of best substrate) [33]: 1; in vitro phosphorylation (% of best substrate) [34]: 21; in vitro phosphorylation (% of best substrate) [35]: 5; in vitro phosphorylation (% of best substrate) [36]: 1; in vitro phosphorylation (% of best substrate) [37]: 3; in vitro phosphorylation (% of best substrate) [38]: 0
